Test results taken from paper PMC2173270 (The Journal of Cell Biology, 2002).
No end group written: not given here. *: point of attachment. Biotin = O=C1N[C@H]2[C@H](CS[C@H]2CCCCC(=O)*)N1

T1: GS15 (endogenous) (rat (endogenous in rat liver Golgi …, UniProt O35152 1-111))
T1 sequence: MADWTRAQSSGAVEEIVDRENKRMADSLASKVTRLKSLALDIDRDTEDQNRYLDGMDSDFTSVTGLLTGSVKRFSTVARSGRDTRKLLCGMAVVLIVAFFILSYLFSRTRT

T2: p115 (rat, UniProt P41542 1-959)
T2 sequence: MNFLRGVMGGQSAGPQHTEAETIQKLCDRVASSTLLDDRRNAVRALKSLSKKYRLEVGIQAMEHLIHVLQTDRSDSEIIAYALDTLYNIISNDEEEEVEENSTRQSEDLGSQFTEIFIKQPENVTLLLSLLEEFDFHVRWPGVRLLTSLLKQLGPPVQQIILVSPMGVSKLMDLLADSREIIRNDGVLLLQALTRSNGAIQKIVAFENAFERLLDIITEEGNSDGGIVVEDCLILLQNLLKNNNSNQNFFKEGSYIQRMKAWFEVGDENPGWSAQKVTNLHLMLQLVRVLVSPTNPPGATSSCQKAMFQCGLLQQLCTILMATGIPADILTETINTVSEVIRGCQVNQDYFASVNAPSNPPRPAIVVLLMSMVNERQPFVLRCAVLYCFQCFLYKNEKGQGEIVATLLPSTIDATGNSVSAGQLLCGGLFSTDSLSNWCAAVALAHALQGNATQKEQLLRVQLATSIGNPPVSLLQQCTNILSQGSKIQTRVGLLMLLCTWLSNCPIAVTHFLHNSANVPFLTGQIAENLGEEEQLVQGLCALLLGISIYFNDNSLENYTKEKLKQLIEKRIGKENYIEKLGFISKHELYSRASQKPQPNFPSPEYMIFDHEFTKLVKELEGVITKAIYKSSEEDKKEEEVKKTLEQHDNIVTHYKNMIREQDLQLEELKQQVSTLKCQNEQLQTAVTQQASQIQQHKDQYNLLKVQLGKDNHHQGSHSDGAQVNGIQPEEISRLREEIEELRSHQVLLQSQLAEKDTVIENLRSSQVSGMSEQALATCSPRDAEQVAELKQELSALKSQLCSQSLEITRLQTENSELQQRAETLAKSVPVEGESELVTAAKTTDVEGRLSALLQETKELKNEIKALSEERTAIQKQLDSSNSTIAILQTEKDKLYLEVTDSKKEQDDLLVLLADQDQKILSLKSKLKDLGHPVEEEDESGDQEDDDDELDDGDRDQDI

B1: Ykt6p (endogenous) (natural protein)
chain: MKLYSLSVFYKGEPKAVLLKAAYDVSSFSFFQRSSVQEFMTFTSQLIVERSAKGSRASVKEQEYLCHVYVRSDSLAGVVIADSEYPSRVAFTLLEKVLDEFSKQVDRIDWPVGSPATIHYTALDGHLSRYQNPREADPMSKVQAELDETKIILHNTMESLLERGEKLDDLVSKSEVLGTQSKAFYKTARKQNSCCAIM
B2: CC4 (aa 843–930 of rat p115) (peptide)
peptide: TTDVEGRLSALLQETKELKNEIKALSEERTAIQKQLDSSNSTIAILQTEKDKLYLEVTDSKKEQDDLLVLLADQDQKILSLKSKLKDL
modifications: NH2-terminally biotinylated
B3: syntaxin-5 (endogenous) (natural protein)
chain: MIPRKRYGSKNTDQGVYLGLSKTQVLSPATAINSSSDIAPLPTPVALVPSPPDTMSCRDRTQEFLSACKSLQSRQNGIQTNKPALHATRQCSEFTLMARRIGKDLSNTFAKLEKLTILAKRKSLFDDKAVEIEELTYIIKQDINSLNKQIAQLQDFVRAKGSQSGRHLQTHSNTIVVSLQSKLASMSNDFKSVLEVRTENLKQQRNRREQFSRAPVSALPLAPNNLGGGPIVLGGESRASRDVAIDMMDPRTSQQLQLIDEQDSYIQSRADTMQNIESTIVELGSIFQQLAHMVKEQEETIQRIDENVLGAQLDVEAAHSEILKYFQSVTSNRWLMVKIFLILIVFFIIFVVFLA
B4: GST–syntaxin-5 (domain or fragment)
chain: MIPRKRYGSKNTDQGVYLGLSKTQVLSPATAINSSSDIAPLPTPVALVPSPPDTMSCRDRTQEFLSACKSLQSRQNGIQTNKPALHATRQCSEFTLMARRIGKDLSNTFAKLEKLTILAKRKSLFDDKAVEIEELTYIIKQDINSLNKQIAQLQDFVRAKGSQSGRHLQTHSNTIVVSLQSKLASMSNDFKSVLEVRTENLKQQRNRREQFSRAPVSALPLAPNNLGGGPIVLGGESRASRDVAIDMMDPRTSQQLQLIDEQDSYIQSRADTMQNIESTIVELGSIFQQLAHMVKEQEETIQRIDENVLGAQLDVEAAHSEILKYFQSVTSNR
B5: CC1 (aa 637–699 of rat p115) (peptide)
peptide: Biotin-KEEEVKKTLEQHDNIVTHYKNMIREQDLQLEELKQQVSTLKCQNEQLQTAVTQQASQIQQHKD
B6: GOS-28 (endogenous) (natural protein)
chain: MAAGTSNYWEDLRKQARQLENELDLKLVSFSKLCTSYSHSSARDGGRDRYSSDTTPLLNGSSQDRMFETMAIEIEQLLARLTGVNDKMAEYTHSAGVPSLNAALMHTLQRHRDILQDYTHEFHKTKANFMAIRERENLMGSVRKDIESYKSGSGVNNRRTELFLKEHDHLRNSDRLIEETISIAMATKENMTSQRGMLKSIHSKMNTLANRFPAVNSLIQRINLRKRRDSLILGGVIGICTILLLLYAFH
B7: His–GOS-28 (domain or fragment)
chain: AAGTSNYWEDLRKQARQLENELDLKLVSFSKLCTSYSHSSARDGGRDRYSSDTTPLLNGSSQDRMFETMAIEIEQLLARLTGVNDKMAEYTHSAGVPSLNAALMHTLQRHRDILQDYTHEFHKTKANFMAIRERENLMGSVRKDIESYKSGSGVNNRRTELFLKEHDHLRNSDRLIEETISIAMATKENMTSQRGMLKSIHSKMNTLANRFPAVNSLIQRINLRKRRD

Legend:
GS15 (endogenous) = target: T1, GS15 (endogenous); test: co-IP
[1] = target: the molecule itself; test: SEC + other: laser light scattering + native gel or EMSA
p115 = target: T2, p115; test: pull-down
GST–syntaxin-5 = target: B4; test: pull-down

## B1
GS15 (endogenous)
  fold enhancement of complex formation by p115 against no p115: ~5 fold

## B2
[1]
  percent dimeric: ~20%
  percent tetrameric: ~10%

## Biotin-DAEQVAELKQELSALKSQLCSQSLEITRLQTENSELQQRAETLAK [CC3 (aa 783–827 of rat p115)]
[1]
  percent dimeric: ~20%
  percent tetrameric: ~10%

## B3
GS15 (endogenous)
  fold enhancement of complex formation by p115 against no p115: ~5 fold

## B4
p115
  Kd: 1800 nM

## Biotin-QPEEISRLREEIEELRSHQVLLQSQLAEKDTVIENLRS [CC2 (aa 728–765 of rat p115)]
[1]
  percent dimeric: ~20%
  percent tetrameric: ~10%

## B5
[1]
  percent dimeric: ~20%
  percent tetrameric: ~10%

## B6
GS15 (endogenous)
  fold enhancement of complex formation by p115 against no p115: ~5 fold

## B7
GST–syntaxin-5
  fold stimulation of the interaction by p115 against no p115: 4 fold
p115
  Kd: 1500 nM
